Experimental findings from IntAct's records for PubMed 23770679 are described below.

B1: Microtubule protein alp7 (Schizosaccharomyces pombe (strain ATCC 38366 / 972)), Q9URY2 (parent)
chain: MSDIVSSSTDYSRRSPSSSSIGTNETDHTGFHEKRQGASSESLIPPAQRSSEESMPAPKLFPKLTSKPNPQLNLKDTLNKRVSDRLQALELNKSFDFSGTPRPMHPISHPLSQHKTPEFKHRKRNVESILTPKNPSLFSSSNAASQRGSLNTAPSNFAYSHSSSLQTSASSRPPVLSNGSFPRQTNTAPLNPPVHLKDNIRNSATPSTSQADIPTQYPINSTQKQQAKYEAEIEGYKAKLAGTYHEISVLQNTIVNVSGQLIAVNDQLQQLRSGKASTSPSTKDTNMRLVEGHNEETLALQRGKYTQEEVDKLIQERMEKVAEDLHAQYSAKHTQKINAFKANYARKYEATIQELQNQIGTAPNAPKISNSNWEEERRALKADNQTLQKQLEKAIQERQDMSDFLNNFKADMAKSDKLLMQQQSQQTGDLETLRLQLQALQEELRVEREERQQLIQMSEDLVIAMDQLNLEQKS
partner: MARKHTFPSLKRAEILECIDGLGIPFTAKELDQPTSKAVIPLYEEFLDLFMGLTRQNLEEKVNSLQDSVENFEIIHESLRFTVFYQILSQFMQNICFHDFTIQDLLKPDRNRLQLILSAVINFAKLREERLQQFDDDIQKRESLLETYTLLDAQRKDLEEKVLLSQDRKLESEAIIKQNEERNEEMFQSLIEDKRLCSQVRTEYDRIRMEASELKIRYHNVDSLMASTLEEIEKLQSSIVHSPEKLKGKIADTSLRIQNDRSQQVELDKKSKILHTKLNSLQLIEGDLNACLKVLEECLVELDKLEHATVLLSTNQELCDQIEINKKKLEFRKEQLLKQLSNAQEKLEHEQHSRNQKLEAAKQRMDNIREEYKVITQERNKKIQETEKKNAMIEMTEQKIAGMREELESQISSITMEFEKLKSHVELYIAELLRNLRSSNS
B2: Microtubule protein alp7 (Schizosaccharomyces pombe (strain ATCC 38366 / 972)), Q9URY2 (parent)
chain: B1 chain
partner: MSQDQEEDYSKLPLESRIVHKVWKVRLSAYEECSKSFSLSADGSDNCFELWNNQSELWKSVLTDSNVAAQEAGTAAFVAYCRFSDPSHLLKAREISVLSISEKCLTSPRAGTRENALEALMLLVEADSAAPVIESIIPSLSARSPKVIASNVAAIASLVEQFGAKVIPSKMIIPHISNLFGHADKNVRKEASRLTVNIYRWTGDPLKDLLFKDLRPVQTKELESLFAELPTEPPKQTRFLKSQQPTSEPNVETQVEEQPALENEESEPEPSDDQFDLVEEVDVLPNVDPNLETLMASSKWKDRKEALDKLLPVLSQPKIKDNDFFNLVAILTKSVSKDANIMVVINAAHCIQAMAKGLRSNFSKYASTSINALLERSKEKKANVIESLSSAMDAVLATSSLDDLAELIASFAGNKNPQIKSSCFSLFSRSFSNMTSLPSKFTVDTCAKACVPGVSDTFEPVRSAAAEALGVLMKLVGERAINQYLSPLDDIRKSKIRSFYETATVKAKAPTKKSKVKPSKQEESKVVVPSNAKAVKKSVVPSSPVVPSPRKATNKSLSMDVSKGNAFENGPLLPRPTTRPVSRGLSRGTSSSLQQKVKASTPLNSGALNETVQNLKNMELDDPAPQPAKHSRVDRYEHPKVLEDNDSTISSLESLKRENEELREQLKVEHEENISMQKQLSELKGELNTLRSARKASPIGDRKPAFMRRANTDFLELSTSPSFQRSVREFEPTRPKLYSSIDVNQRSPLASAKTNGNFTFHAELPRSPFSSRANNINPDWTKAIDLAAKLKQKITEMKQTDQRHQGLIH

One test covers variants of B1. The note with it: with nuf2_schpo nuf2, Q10173.
On to MSDIVSSSTDYSRRSPSSSSIGTNETDHTGFHEKRQGASSESLIPPAQRSSEESMPAPKLFPKLTSKPNPQLNLKDTLNKRVSDRLQALELNKSFDFSGTPRPMHPISHPLSQHKTPEFKHRKRNVESILTPKNPSLFSSSNAASQRGSLNTAPSNFAYSHSSSLQTSASSRPPVLSNGSFPRQTNTAPLNPPVHLKDNIRNSATPSTSQADIPTQYPINSTQKQQAKYEAEIEGYKAKLAGTYHEIAVLQNTIVNVSGQLIAVNDQLQQLRSGKASTSPSTKDTNMRLVEGHNEEALALQRGKYTQEEVDKLIQERMEKVAEDLHAQYSAKHTQKINAFKANYARKYEAAIQELQNQIGTAPNAPKISNSNWEEERRALKADNQTLQKQLEKAIQERQDMADFLNNFKADMAKSDKLLMQQQSQQTGDLETLRLQLQALQEELRVEREERQQLIQMSEDLVIAMDQLNLEQKS [S248A;T297A;T351A;S402A], for which the “effect of a mutation on the interaction” value is reported as “disrupting interaction strength”.

A further test covers variants of B2. The note with it: with alp14_schpo alp14, O94534.
With MSDIVSSSTDYSRRSPSSSSIGTNETDHTGFHEKRQGASSESLIPPAQRSSEESMPAPKLFPKLTSKPNPQLNLKDTLNKRVSDRLQALELNKSFDFSGTPRPMHPISHPLSQHKTPEFKHRKRNVESILTPKNPSLFSSSNAASQRGSLNTAPSNFAYSHSSSLQTSASSRPPVLSNGSFPRQTNTAPLNPPVHLKDNIRNSATPSTSQADIPTQYPINSTQKQQAKYEAEIEGYKAKLAGTYHEISVLQNTIVNVSGQLIAVNDQLQQLRSGKASTSPSTKDTNMRLVEGHNEETLALQRGKYTQEEVDKLIQERMEKVAEDLHAQYSAKHTQKINAFKANYARKYEATIQELQNQIGTAPNAPKISNSNWEEERRALKADNQTLQKQLEKAIQERQDMSDFLNNFKADMAKSDKLLMQQQSQQTGDLETLRLQLQALQEELRVEREERQQLIQMSEDAVIAMDQLNLEQKS [L461A], the “effect of a mutation on the interaction” value is reported as “disrupting interaction strength”.
